The results in this text go back to article PMC11352701.

The target of the data set is dFMRP (dFmr1-PD) (UniProt Q9NFU0 1-684). As to the kind of experiment: EMSA. Background: Mobility shift assays separate free from complexed probe on a gel.
Sequence of dFMRP (dFmr1-PD) (Q9NFU0 whole entry): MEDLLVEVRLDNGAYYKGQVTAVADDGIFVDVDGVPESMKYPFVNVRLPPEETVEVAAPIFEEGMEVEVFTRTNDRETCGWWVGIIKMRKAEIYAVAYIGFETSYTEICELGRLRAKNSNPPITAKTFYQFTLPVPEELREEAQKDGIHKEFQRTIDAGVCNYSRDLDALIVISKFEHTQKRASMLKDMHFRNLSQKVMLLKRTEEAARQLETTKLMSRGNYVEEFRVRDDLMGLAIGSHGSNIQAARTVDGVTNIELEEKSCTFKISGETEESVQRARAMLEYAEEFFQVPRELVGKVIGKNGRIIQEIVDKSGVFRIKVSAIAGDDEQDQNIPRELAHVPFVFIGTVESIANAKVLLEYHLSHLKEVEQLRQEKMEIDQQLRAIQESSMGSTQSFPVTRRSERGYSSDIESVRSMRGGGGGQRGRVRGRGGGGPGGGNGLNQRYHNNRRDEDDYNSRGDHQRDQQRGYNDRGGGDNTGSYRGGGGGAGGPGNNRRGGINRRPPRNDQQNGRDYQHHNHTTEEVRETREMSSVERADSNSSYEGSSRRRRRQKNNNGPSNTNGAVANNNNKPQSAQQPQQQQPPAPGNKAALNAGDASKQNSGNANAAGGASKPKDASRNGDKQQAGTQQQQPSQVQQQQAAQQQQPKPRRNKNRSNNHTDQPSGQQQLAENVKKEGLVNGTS

For the molecule AAAAAAAAAAAAAA (ssRNA) [A14 control RNA], the binding result is “no binding”.
